In the nanobody polyreactivity screen of Harvey et al. (2022):

Assay: yeast display, Sf9 membrane polyspecificity reagent, FACS + sequencing; frameworks hold sequencing errors
How it was run: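 Polyreactivity labels are assigned by the sorting gate from which each nanobody was recovered. The gates were low and high (top ~1%), set on anti-HA fluorescence for expression and streptavidin fluorescence for reagent binding. Before sorting, galactose-induced (36–48 hours) yeast display cells were stained for 1 hour at 4 °C with 10% biotinylated, detergent-solubilized Sf9 membrane reagent.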

| Sequence | polyreactivity (PSR sort gate) |
| --- | --- |
| QVQLVETGGGLVQAGGSLGLSCDASGRIFDYYSMGWYRQATGKERELVASITRGGITYYADSVKGRFTISRDNAKNTVYLQMNSLKPEDTAVYYCADGLRWRRTYGYWGQGTQVTVSS | high polyreactivity |
| QVQLVETGGGLVQAGGSLLLSCAASGNTFQYYAMGCYRQAPGKERELVAAITTGGSTNYADSVKGRFTISRDNAKNTVYLQMNSLKPEDTAVYYCAARGCVSKRISDYWGQGTQVTVSS | low polyreactivity |
| QVQLVETGGGLVQAGGSLRLSCAASARTFVPYAMGWYRPAPGKERELVADITDGDVSTYADSVNGRFTISRDKAKNTVYLQMNSLKPDDNAVYYCAAQYRRLVTRWPVTFGYWGQGTQVTVSS | low polyreactivity |
| QVQLVETGGGLVQAGGSLRLSCAASGFIFSAYAMGWYRQAPGKEREFVAAISKRGGSTYYADSVKGRFTISRENAKNTVYLQMNTLKPDDTAVYYCAAPYSRYLVGYGYWGQGTQVTVSS | high polyreactivity |
| QVQLVETGGGLVQAGGSLRLSCAASGFIFSYNAMGWYRQAPGKERELVASISRADSTNYADSVKGRFTISRDNAKNTVYLQMNSLKPEDTAVYYCAKKGRTARRLYSFDYWGQGTQVTVSS | low polyreactivity |
| QVQLVETGGGLVQAGGSLRLSCAASGFIFYDYAMGWYRQSPGKERELVASISWSSGSTYYADSVKGRFTISRDNAKNTVYLQMNSLKPEDTAVYYCAADGYPLQLYNYWGQGTQVSVSS | low polyreactivity |
| QVQLVETGGGLVQAGGSLRLSCAASGFIVAEYAMGWYIQAPGKERELVAAITRSGGRTYYADSVKGRFTISRDNAKNTVYLQMNSLKPEDTAVYYCAAGLGYPRLYYWGQGTQVTVSS | high polyreactivity |
| QVQLVETGGGLVQAGGSLRLSCAASGFTCYRNAIGWYRQAPRKDREIVAAITSDGITYYADSVKGRFTMSRDNAKNTVYLQMNSLKPEDTAVYYCAADVQADLYSYEYDYWGQGTQVTVSS | low polyreactivity |
| QVQLVETGGGLVQAGGSLRLSCAASGFTFKFNTMGWYRQAPGKERELVAAISWRGGDTSYADSVKGRFTISRDNAKNTVYLQMNSLKPEDTAVYYCAASPRYPYWYDYWGQGTQVTVSS | low polyreactivity |
| QVQLVETGGGLVQAGGSLRLSCAASGFTFSYYAMGWYRQAPGKERELVAAISWSGGSTYYADSVKGRFTISRDNAKNTVYLLMNSLKPEDTAVYYSNKVGRAIGPYDYWGQGTQVTVSS | high polyreactivity |
| QVQLVETGGGLVQAGGSLRLSCAASGIFTYTMGWYRQAPRKERELVAAITNGSTYDADSVKGRFTISRDNAKNTVYLQMNSLKPEDTEVYYCAADRSSAYRWRSAGYYKYDYWGQGTHVTVSS | low polyreactivity |
| QVQLVETGGGLVQAGGSLRLSCAASGIIFDVYAMGWYRPAPGKERELVAAISYGGGTTYYADSVKGRFTISRDNAKNTVYLQMNSLKPEDTAVYYCAADSYRSIGDDYWGQGTQVTVSS | high polyreactivity |
| QVQLVETGGGLVQAGGSLRLSCAASGIIIPWYTMGWYRQAPGKERELVAAISSGGRTNYADSVKGRFTISRDNAKNTVYLQMNSLIPEDTAVYYCAANYYRDRDWGQGTQVTVSS | high polyreactivity |
| QVQLVETGGGLVQAGGSLRLSCAASGITFASYAMGWYRHAPGKEREFVATITTGGTNTYYADSVKGRFTLSRDNAKKTVYLQMNSQKPEDTAVYYCAADSTPYVLSGNYDYWGQGTQVTVSS | low polyreactivity |
| QVQLVETGGGLVQAGGSLRLSCAASGITFERYVMGWYRQAPGKERELVAVITKRGGNTYYADSVKGRFTISRDNAKNTVYLQMNSLKPEDTSVYYCATRSGRSTGDYWGQGTQVTVSS | high polyreactivity |
| QVQLVETGGGLVQAGGSLRLSCAASGITFVKYAMGWYRQAPGKERELVAAISGSGGSTSYADSVKGRFTISRDNAKNTVYLQMNSLKPEDTAVYYCNKAIVRYPKTRDYWGQGTQVTVSS | low polyreactivity |
| QVQLVETGGGLVQAGGSLRLSCAASGLTFYDYAMGWYRQAPGKERELVADIDFNGGSTSYADSVKGRFTISRDNAKNTVYLQMNSLKPEDTAVYDCNTRDRGDVVTGLDYWGQGTQVTVSS | low polyreactivity |
| QVQLVETGGGLVQAGGSLRLSCAASGNHFSTYTMGGYRQAPGKERELVAAISTSGTSTYYADSVKGRFTISRDNAKNTVYLQMNSLKPEDTAVYYCAASYLRSSQRMDYWGQGTQVTVSS | low polyreactivity |
| QVQLVETGGGLVQAGGSLRLSCAASGNTFAGNAMGWYRQAPGKERELVAAISRSGVTTRYADSVKGRFTISRDNATNTVYLQMNSLKPEDTAVYYCNADPRLRQNRDYWGQGTQVTVSS | high polyreactivity |
| QVQLVETGGGLVQAGGSLRLSCAASGPFYPYYAMGSYRQAPGKERELVATISTAGSTNYADSVKGRFTISRDNATNTVYLQMNSLIPEDTAVYYCATRNTWYHRGYDYWGQGTQVPVSS | low polyreactivity |
| QVQLVETGGGLVQAGGSLRLSCAASGRIFWRNDMGWYRQAPGKERELVAAISGSGGSTSYADSVKGRFTISRDNAKNTVYLQLNSLKPEDTAVYYFAADSESVGYEYWGQGTQVTVSS | high polyreactivity |
| QVQLVETGGGLVQAGGSLRLSCAASGRIFYGNAMGWYRHAPGKERELVAAITRSGSSTYYADSVKGRFTISRDNAKNTVYLLMNSLKPEDTAVSYCAVKYFDYVGQYAYYYWGQGTQVTVSS | high polyreactivity |

| Sequence | polyreactivity (PSR sort gate) |
| --- | --- |
| QVQLVETGGGLVQAGGSLRLSCAASGRTFTKYAMGWYRQAPGKERELVAAISGNGGSTHYADSVKGRFTISRDNAKNTVYLQMNSLKPEDTAVYYCAADHRHKSNSWGQGTQVTVSS | low polyreactivity |
| QVQLVETGGGLVQAGGSLRLSCAASGRTFVGNAKGWYRPAPGQERELVADITWSGDITYYADSVKGRFTISRDHAKNSVYLQMNSLKPEDTAVYYCAADYHRRRTDYDYWGQGTQVTVSS | low polyreactivity |
| QVQLVETGGGLVQAGGSLRLSCAASGRTLIGNAMGWYRQAPGKERELVAAISFRGTRTYYADSVKGRFTISRDNAKNTFYLQMNSLKPEDTAVYYCNVYTRDRGYDYWGQGTQVTVSS | high polyreactivity |
| QVQLVETGGGLVQAGGSLRLSCAASGRTLTCYAMGWYRQAPGKERELVAAISWSGGSTYYADSVKGRFTISRDNAKNTVYLQMYSLIPEDTAVYYCAADRVRSYFSRYYSTPLDYYWGQGTQVTVSS | high polyreactivity |
| QVQLVETGGGLVQAGGSLRLSCAASGRTMPYYAMGWYRQAPGKERELVATISSRGGSTYYADSVKGRFTISRDNAKNTVYLQMNSLKPEDTAVYYCAARGNTPRTRRYGYWGQGTQVTVSS | high polyreactivity |
| QVQLVETGGGLVQAGGSLRLSCAASGRTYSTYAMGWYRQAPGKERDLVADISWRGAPTYYADSVKGRFTISRDNAKNTVYLQIISQKPEYTAVYYFAAAPYGYLRYEYWGLGTQVTVSS | high polyreactivity |
| QVQLVETGGGLVQAGGSLRLSCAASGSIFGDNAMGWYRQAPGKERELVAAIDQSGDSTYYADSVKGRFTISRDNAKNTVYLQMNSLKPEDTAVYYCAAQSYDYWYDYDYWGQGTQVTVSS | high polyreactivity |
| QVQLVETGGGLVQAGGSLRLSCAASGSIFIYFAMGWYRQAPGKERELVAAIDRSGGNTYYADSVKGRFTLSRDYAKNTVYLQMNSLKPEDTAVYYCAALVHRRVQYDYWGQGTQVTVSS | high polyreactivity |
| QVQLVETGGGLVQAGGSLRLSCAASGSIFKNNAMGGYRQAPGKERELVAAIRSYGGSTYYADSVKGRFTISRDNAKNTVYLQMKSLKPEDTAVYYCAARYRSYPTYYQYNYWGQGTQVTVSS | high polyreactivity |
| QVQLVETGGGLVQAGGSLRLSCAASGSIFQGYAMGWYRQAPGKERELVAGITSSGGSTHYADSVKGRFTISRDNAKNTVYLQMNSLKPEDTAVYDYWGQGTQVTVSS | low polyreactivity |
| QVQLVETGGGLVQAGGSLRLSCAASGSIFQYYAMGSYRQAPGKERELVAAISSGGRTNYADSVKGRFTISRENAKNSVYLQMNSLKPEDTAVYYCAAARYYYQVYRWEYDYWGQGTQVTVSS | high polyreactivity |
| QVQLVETGGGLVQAGGSLRLSCAASGSIFTYYAMGWYRQAPGKEREFVAGISWSGGRTYYADSVKGRFTISRDNAKNTVYLQMNSLKPEDTAVYYCAAEIHDRFDSWGQGTQVTVSS | low polyreactivity |
| QVQLVETGGGLVQAGGSLRLSCAASGSTFVSNAMGWYSQAPGKERELVAAISYIGGGTYYADSEKGRFTISRDNAKNTVYLQMNSLKPEDTAVYYCAAGTPYDLDDYCGQGTQVTVSS | low polyreactivity |
| QVQLVETGGGLVQAGGSLRLSCAASGSTFVYYAMGWYRQAPGKERELVAAISSGGNTKYADSVKGRFTISRDNAKNTVYLQMNSLKPEDTEVYYCARESQSYYDHDYWGQVTQVTVSS | low polyreactivity |
| QVQLVETGGGLVQAGGSLRLSCAASGSTFWYNAMGWYRQAPGKERELVAAISRSGATTYYADSVKGRFTISRDNAKNTVYLQMNSLKPEDTAVYYCNAVISPSSYVRNSDYWGQGTQVTVSS | low polyreactivity |
| QVQLVETGGGLVQAGGSLRLSCAASGSTFWYNAMGWYRQAPGKESELVAAISRSGATTYYADSVKGRFTISRDNAKNTVYLQMNSLKPEDTAVYYCNKVRQYRYRGYTFDYWGQGTQVSVSS | low polyreactivity |
| QVQLVETGGGLVQAGGSLRLSCAASGSTIYLYAAMGLYRQAPGKESELVAAISGSGGSTFYADSVKGRFTISRDNAKNTVYLQMNSLKPEDTAVYYCAADKRYPYETYRPSVSASDSWGQGTQVTVSS | low polyreactivity |
| QVQLVETGGGLVQAGGSLRLSCAASGYNLNSNAMGWYRQAPGKEREFVASITESGGTTYYADSVKGRFTISRDNAKNTVYLQMNSLKPEDTAVYYCAADLVDWWYSSDLYDYWGQGTQVTVSS | high polyreactivity |
| QVQLVETGGGLVQAGGSLRLSCAPSGSIFEYNGMGWYRQAPGKERELVAAITTTGTTDYADSVKGRFTISRDNAKNTVYLQMNSLKPEDTAVYYCAADYTYYYKGEYDYWGQGTQVTVSS | low polyreactivity |
| QVQLVETGGGLVQAGGSLRLSCAPSGSIFGLNAMGWYRQAPGKERELVAAINTDGDTYYADSVKGRFTISRDNAKNTVYLQMNSLIPEDTAVFYCAADYYWDPFDSNFGHVPQEYESWGQGTQVTVSS | low polyreactivity |
| QVQLVETGGGLVQAGGSLRLSCAPSGSTFNSNVMGWYRQAPGKERELLAAISRSGGNTYYADSVKGRFTISRDNAKNTVYLQMNSLKQEDTAVYYCNVVFFSYYHGAYRGYDYWGQGTQVTVSS | high polyreactivity |
